Assay results published in patent US10287521B2, “Enzymatic removal of steryl glycosides” (KECLON S.A., priority 2012, dated 2019).

B1: LacS: steryl glycosidase LacS from S. solfataricus (SEQ ID NO.: 2) (protein, listed as Sulfolobus solfataricus)
chain: MYSFPNSFRFGWSQAGFQSEMGTPGSEDPNTDWYKWVHDPENMAAGLVSGDLPENGPGYWGNYKTFHDNAQKMGLKIARLNVEWSRIFPNPLPRPQNFDESKQDVTEVEINENELKRLDEYANKDALNHYREIFKDLKSRGLYFILNMYHWPLPLWLHDPIRVRRGDFTGPSGWLSTRTVYEFARFSAYIAWKFDDLVDEYSTMNEPNVVGGLGYVGVKSGFPPGYLSFELSRRAMYNIIQAHARAYDGIKSVSKKPVGIIYANSSFQPLTDKDMEAVEMAENDNRWWFFDAIIRGEITRGNEKIVRDDLKGRLDWIGVNYYTRTVVKRTEKGYVSLGGYGHGCERNSVSLAGLPTSDFGWEFFPEGLYDVLTKYWNRYHLYMYVTENGIADDADYQRPYYLVSHVYQVHRAINSGADVRGYLHWSLADNYEWASGFSMRFGLLKVDYNTKRLYWRPSALVYREIATNGAITDEIEHLNSVPPVKPLRH
B2: TL: steryl glycosidase TL from T. litoralis (SEQ ID NO.: 17) (protein, listed as Thermococcus litoralis)
chain: FPEKFLFGTSTAAHQVEGDNRWNDWWYYEEIGKLPYKSGKACNHWGLYREDIELMAQLGYNAYRFSIEWSRLFPEEGKFNEDAFNRYREIIELLLEKGITPNVTLHHFTSPLWFMRKGGFLKEENLKYWEKYVDKAAELLKGVKLVATFNEPMVYVMMGYLTAYWPPFVKSPFKAFKVAANLLKAHAMAYDILHGNFDVGIVKNIPIMLPASNREKDIKAAQKADNLFNWNFLDAIWSGKYKGAFGTYKTPESDVDFIGINYYTASEVRHSWNPLKFFFDAKLADLSERKTDMGWSVYPKGIYEAIAKVSRYGKPMYITENGIATLEDEWRIEFIIQHLQYVHKALNDGFDLRGYFYWSFMDNYEWAEGFRPRFGLVEVDYTTFERRPRKSGYVYGEIAREKKIKDELLAKYGLPEL

Assays:
[1] = Steryl glycoside hydrolysis in distilled biodiesel/water mixture (Example 5); format: biochemical
Method: Steryl glycosidase activity is measured as follows: • a) Prepare a stock solution of steryl glycoside by dissolving 10 milligrams (mg) of steryl glycoside in 1 milliliter (ml) of a 3:1 mixture of tetrahydrofuran:water. • b) Add the steryl glycoside to a final concentration of 100 microgram per milliliter (μg/ml) in 1 ml of a reaction mixture containing 50 millimolar (mM) Phosphate buffer pH 6.5 and 5 μg of steryl glycosidase in an Eppendorf tube. • c) Place the reaction mixture on a shaker incubator and incubate at 80° C. for 4 h. • d) Extract the reaction mixture with 1 ml of ethyl acetate and evaporate to dryness under vacuum. • e) Re-dissolve the sample in 10 microliter (μl) of ethyl acetate • f) Analyze by thin layer chromatography (TLC) the presence of free sterols, generated as a result of steryl glycoside hydrolysis after the enzymatic treatment, using Hexane:Methanol 85:15 as running buffer and develop with ρ-anisaldehide • d) Alternatively, analyze 50 μl sample of the reaction mixture for the presence of glucose using an assay based on the Hexokinase/Glucose 6-P-dehydrogenase method: the glucose generated by steryl glycoside hydrolisis is converted by Hexokinase (or Glucokinase) into glucose 6-phosphate. Glucose 6-phosphate is further oxidized by Glucose 6-P dehydrogenase, simultaneously reducing NADP+ to NADPH. The NADPH generated is detected by fluorescence (λex: 338 nm, λem: 461 nm) and allows detection of glucose levels below 1 ppm. The assay can be adapted to microplates scale and detected in a Synergy microplate reader.
The following is an example of how to use a steryl glycosidase to remove steryl glycosides from a biodiesel mixture: • a) A 42.5 ml distilled biodiesel sample containing 100 ppm of steryl glycosides is mixed with 7.5 ml of a water solution containing 50 mM Phosphate buffer pH 6.5 and 300 μg of steryl glycosidase. […]

[2] = Steryl glycoside hydrolysis in crude biodiesel (Example 6); format: biochemical; details: about 70 ppm steryl glycosides, 8 mg enzyme, 80° C., in 3 h

Row | Molecule | steryl glycoside hydrolysis, dependence on emulsifier ([1]; distilled biodiesel/water, 80° C., with or without 5% ADMUL emulsifier) | steryl glycoside hydrolysis compared with LacS ([1]; Bio/water+ADMUL emulsions, data not shown) | steryl glycoside hydrolysis ([1]; without the addition of any emulsifier, in 3 h, 80° C.) [%] | steryl glycoside hydrolysis in crude biodiesel [2]
1 | B1 | could only exhibit steryl glycoside hydrolisis when reactions were performed in the presence of ADMUL™ | – | – | –
2 | B2 | – | higher and faster hydrolysis | ~100 | could completely hydrolize steryl glycosides
